Here are results for five sequences from the supplement of paper PMC11246515.

± gives the standard deviation of the averaged measurements.

The nature of this data set: total protein half-life in vivo (active degradation + dilution); higher = more stable protein.
[1] abbreviates: E. coli NCM3722 delta-clpP delta-lon delta-hslV, growth: N-lim chemostat, doubling time 6 h.
The mark [2] stands for this setting: E. coli NCM3722 delta-clpP, growth: N-lim chemostat, doubling time 6 h.
The mark [3] stands for this setting: E. coli NCM3722 delta-hslV, growth: N-lim chemostat, doubling time 6 h.
Setting [4] is: E. coli NCM3722 delta-lon, growth: N-lim chemostat, doubling time 6 h.
[5] abbreviates: E. coli NCM3722 delta-smpB, growth: N-lim chemostat, doubling time 6 h.
Setting [6] is: wild type E. coli NCM3722, growth: C-lim chemostat, doubling time 3 h.
The mark [7] stands for this setting: wild type E. coli NCM3722, growth: C-lim chemostat, doubling time 6 h.
Setting [8] is: wild type E. coli NCM3722, growth: C-lim chemostat, doubling time 12 h.
[9] abbreviates: wild type E. coli NCM3722, growth: N-lim chemostat, doubling time 6 h.
Where [10] appears, read: wild type E. coli NCM3722, growth: N-lim chemostat, doubling time 12 h.
[11] abbreviates: wild type E. coli NCM3722, growth: P-lim chemostat, doubling time 6 h.
Where [12] appears, read: wild type E. coli NCM3722, growth: P-lim chemostat, doubling time 12 h.

As for “MIKATDRKLVVGLEIGTAKVAALVGEVLPDGMVNIIGVGSCPSRGMDKGGVNDLESVVKCVQRAIDQAELMADCQISSVYLALSGKHISCQNEIGMVPISEEEVTQEDVENVVHTAKSVRVRDEHRVLHVIPQEYAIDYQEGIKNPVGLSGVRMQAKVHLITCHNDMAKNIVKAVERCGLKVDQLIFAGLASSYSVLTEDERELGVCVVDIGGGTMDIAVYTGGALRHTKVIPYAGNVVTSDIAYAFGTPPSDAEAIKVRHGCALGSIVGKDESVEVPSVGGRPPRSLQRQTLAEVIEPRYTELLNLVNEEILQLQEKLRQQGVKHHLAAGIVLTGGAAQIEGLAACAQRVFHTQVRIGAPLNITGLTDYAQEPYYSTAVGLLHYGKESHLNGEAEVEKRVTASVGSWIKRLNSWLRKEF [P0ABH0]”, the “total protein half-life in vivo” value runs as follows: under setting [1], 6.03 ± 0.16 h; under setting [2], 6.41 ± 0.51 h; under setting [3], 6.33 ± 0.27 h; under setting [4], 6.06 ± 0.5 h; under setting [5], 5.42 ± 0.13 h; under setting [6], 3.04 ± 0.12 h. Also, the “total protein half-life in vivo” value reads like this: under setting [7], 5.738 ± 0.047 h; under setting [8], 10 ± 0.52 h; under setting [9], 5.48 ± 0.26 h; under setting [10], 10.8 ± 0.71 h; under setting [11], 5.868 ± 0.02 h; under setting [12], 11.3 ± 0.42 h.

As to “MNQNLLVTKRDGSTERINLDKIHRVLDWAAEGLHNVSISQVELRSHIQFYDGIKTSDIHETIIKAAADLISRDAPDYQYLAARLAIFHLRKKAYGQFEPPALYDHVVKMVEMGKYDNHLLEDYTEEEFKQMDTFIDHDRDMTFSYAAVKQLEGKYLVQNRVTGEIYESAQFLYILVAACLFSNYPRETRLQYVKRFYDAVSTFKISLPTPIMSGVRTPTRQFSSCVLIECGDSLDSINATSSAIVKYVSQRAGIGINAGRIRALGSPIRGGEAFHTGCIPFYKHFQTAVKSCSQGGVRGGAATLFYPMWHLEVESLLVLKNNRGVEGNRVRHMDYGVQINKLMYTRLLKGEDITLFSPSDVPGLYDAFFADQEEFERLYTKYEKDDSIRKQRVKAVELFSLMMQERASTGRIYIQNVDHCNTHSPFDPAIAPVRQSNLCLEIALPTKPLNDVNDENGEIALCTLSAFNLGAINNLDELEELAILAVRALDALLDYQDYPIPAAKRGAMGRRTLGIGVINFAYYLAKHGKRYSDGSANNLTHKTFEAIQYYLLKASNELAKEQGACPWFNETTYAKGILPIDTYKKDLDTIANEPLHYDWEALRESIKTHGLRNSTLSALMPSETSSQISNATNGIEPPRGYVSIKASKDGILRQVVPDYEHLHDAYELLWEMPGNDGYLQLVGIMQKFIDQSISANTNYDPSRFPSGKVPMQQLLKDLLTAYKFGVKTLYYQNTRDGAEDAQDDLVPSIQDDGCESGACKI”, the “total protein half-life in vivo” value is 4.05 ± 0.63 h under setting [1]; 3.93 ± 0.074 h under setting [2]; 4.03 ± 0.099 h under setting [3]; 4.24 ± 0.14 h under setting [4]; 3.67 ± 0.52 h under setting [5]; 3.07 ± 0.15 h under setting [6]. The “total protein half-life in vivo” value is, setting by setting: under setting [7], 4.91 ± 0.43 h; under setting [8], 9.24 ± 1.7 h; under setting [9], 3.85 ± 0.23 h; under setting [10], 5.89 ± 0.22 h; under setting [11], 5.93 ± 0.08 h; under setting [12], 11.1 ± 0.48 h.

Take “MQTTQQNAPLKRTMKTRHLIMLSLGGVIGTGLFFNTGYIISTTGAAGTLLAYLIGALVVWLVMQCLGELSVAMPETGAFHVYAARYLGPATGYTVAWLYWLTWTVALGSSFTAAGFCMQYWFPQVPVWVWCVVFCAIIFGLNVISTRFFAEGEFWFSLVKVVTIIAFIILGGAAIFGFIPMQDGSPAPGLSNITAEGWFPHGGLPILMTMVAVNFAFSGTELIGIAAGETENPRKVIPVAIRTTIARLIIFFIGTVFVLAALIPMQQVGVEKSPFVLVFEKVGIPYAADIFNFVILTAILSAANSGLYASGRMLWSLSNERTLPACFARVTKNGVPLTALSVSMLGGVLALFSSVVAPDTVFVALSAISGFAVVAVWLSICASHFVFRRRHLQQGKALSELHYRAPWYPLVPVLGFVLCLVACVGLAFDPAQRIALWCGLPFVALCYGAYFLTQPRNAKQEPEHVAE”: the “total protein half-life in vivo” value reads like this: under setting [1], 3.09 ± 0.25 h; under setting [2], 1.78 h; under setting [3], 3.13 h; under setting [5], 2.51 ± 0.28 h; under setting [6], 3.05 ± 0.71 h; under setting [7], 4.13 ± 0.25 h. The “total protein half-life in vivo” value is, setting by setting: under setting [8], 7.02 ± 0.5 h; under setting [9], 3.79 h; under setting [11], 3.63 ± 0.43 h; under setting [12], 7.23 h.

With “MYTLNWQPPYDWSWMLGFLAARAVSSVETVADSYYARSLAVGEYRGVVTAIPDIARHTLHINLSAGLEPVAAECLAKMSRLFDLQCNPQIVNGALGRLGAARPGLRLPGCVDAFEQGVRAILGQLVSVAMAAKLTARVAQLYGERLDDFPEYICFPTPQRLAAADPQALKALGMPLKRAEALIHLANAALEGTLPMTIPGDVEQAMKTLQTFPGIGRWTANYFALRGWQAKDVFLPDDYLIKQRFPGMTPAQIRRYAERWKPWRSYALLHIWYTEGWQPDEA”, the “total protein half-life in vivo” value is, setting by setting: under setting [1], 6.48 h; under setting [6], 2.32 ± 0.17 h; under setting [7], 2.85 h; under setting [8], 4.47 h; under setting [9], 1.34 h; under setting [10], 1.62 h. For the same sequence, the “total protein half-life in vivo” value under setting [11] is 3.45 h.

With “MQILFNDQAMQCAAGQTVHELLEQLDQRQAGAALAINQQIVPREQWAQHIVQDGDQILLFQVIAGG”, the “total protein half-life in vivo” value by setting is: under setting [1], 2.75 h; under setting [8], 4.47 h; under setting [9], 1.3 h; under setting [11], 3.24 h; under setting [12], 5.24 ± 0.77 h.
